# Assay results taken from paper PMC11697113, “The Hsc70 system maintains the synaptic SNARE protein SNAP-25 in an assembly-competent state and delays its aggregation [drawing 1]” (The Journal of Biological Chemistry, 2024).
# Target: heat shock cognate 70 (Hsc70), human constitutively expressed Hsp70, wild type (human) (UniProt P11142)
# Sequence (P11142 whole entry): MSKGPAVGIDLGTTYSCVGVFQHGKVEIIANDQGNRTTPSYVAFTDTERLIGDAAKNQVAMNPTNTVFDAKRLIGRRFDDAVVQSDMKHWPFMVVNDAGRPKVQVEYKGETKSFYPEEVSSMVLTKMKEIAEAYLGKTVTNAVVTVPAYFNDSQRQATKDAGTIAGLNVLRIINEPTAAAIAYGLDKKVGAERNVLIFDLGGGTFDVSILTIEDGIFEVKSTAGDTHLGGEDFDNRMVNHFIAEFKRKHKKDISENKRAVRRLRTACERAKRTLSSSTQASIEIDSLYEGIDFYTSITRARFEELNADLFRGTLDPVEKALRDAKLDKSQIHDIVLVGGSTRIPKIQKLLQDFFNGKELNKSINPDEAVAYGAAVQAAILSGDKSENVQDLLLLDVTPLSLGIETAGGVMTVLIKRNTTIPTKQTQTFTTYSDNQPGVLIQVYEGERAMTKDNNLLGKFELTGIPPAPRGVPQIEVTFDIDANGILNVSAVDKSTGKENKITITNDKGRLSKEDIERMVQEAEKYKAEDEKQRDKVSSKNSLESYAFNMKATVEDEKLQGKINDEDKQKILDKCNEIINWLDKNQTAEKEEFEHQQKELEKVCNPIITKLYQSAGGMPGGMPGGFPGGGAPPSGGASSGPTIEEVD
substance,measurement,value
"SNAP-25 (SNAP-25B, Cys-less CS mutant), His tag cleaved (from UniProt P60880-1 1-206) (natural protein)","lag time of SNAP-25 aggregation (50 μM SNAP-25, optical density at 360 nm, 37 °C) in the presence of Hsc70 (5 μM); ∼38 h without Hsc70",65 h
